Experimental data as given in publication PMC6476931.

Molecular target: Human fibrinogen (human) (UniProt P02671)
Assay: ELISA; Fg coated on wells (5 μg/ml, 0.5 μg/well); GST-vWbp or GST-Coa proteins in 1% BSA, 0.05% Tween 20, TBS, 1 h at room temperature; detected with HRP anti-GST; one-site fit, apparent KD, mean of three experiments

Chain of Human fibrinogen (human) (P02671 36-866, chain 1 of 3): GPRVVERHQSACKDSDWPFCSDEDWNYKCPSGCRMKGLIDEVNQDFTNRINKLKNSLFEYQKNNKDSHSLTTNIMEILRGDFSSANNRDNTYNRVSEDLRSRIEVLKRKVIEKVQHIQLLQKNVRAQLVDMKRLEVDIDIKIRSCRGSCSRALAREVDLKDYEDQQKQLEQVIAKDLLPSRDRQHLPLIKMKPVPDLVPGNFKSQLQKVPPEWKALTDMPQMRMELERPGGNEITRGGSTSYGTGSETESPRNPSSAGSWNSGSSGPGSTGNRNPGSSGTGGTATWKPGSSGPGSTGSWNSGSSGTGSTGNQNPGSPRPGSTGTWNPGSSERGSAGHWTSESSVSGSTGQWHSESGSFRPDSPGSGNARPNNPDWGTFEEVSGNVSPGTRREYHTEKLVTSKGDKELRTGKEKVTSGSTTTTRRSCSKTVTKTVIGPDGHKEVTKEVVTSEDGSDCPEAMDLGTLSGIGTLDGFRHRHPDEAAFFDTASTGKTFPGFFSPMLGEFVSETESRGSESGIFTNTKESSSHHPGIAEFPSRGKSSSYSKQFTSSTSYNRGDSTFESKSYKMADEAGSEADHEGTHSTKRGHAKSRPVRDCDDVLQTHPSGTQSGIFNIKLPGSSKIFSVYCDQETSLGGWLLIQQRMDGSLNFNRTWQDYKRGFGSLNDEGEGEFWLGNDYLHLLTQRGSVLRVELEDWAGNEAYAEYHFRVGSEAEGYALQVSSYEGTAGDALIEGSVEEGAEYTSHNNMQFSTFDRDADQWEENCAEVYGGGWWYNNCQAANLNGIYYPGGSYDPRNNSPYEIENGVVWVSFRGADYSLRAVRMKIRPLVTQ
Chain of Human fibrinogen (human) (P02675 45-491, chain 2 of 3, further chain): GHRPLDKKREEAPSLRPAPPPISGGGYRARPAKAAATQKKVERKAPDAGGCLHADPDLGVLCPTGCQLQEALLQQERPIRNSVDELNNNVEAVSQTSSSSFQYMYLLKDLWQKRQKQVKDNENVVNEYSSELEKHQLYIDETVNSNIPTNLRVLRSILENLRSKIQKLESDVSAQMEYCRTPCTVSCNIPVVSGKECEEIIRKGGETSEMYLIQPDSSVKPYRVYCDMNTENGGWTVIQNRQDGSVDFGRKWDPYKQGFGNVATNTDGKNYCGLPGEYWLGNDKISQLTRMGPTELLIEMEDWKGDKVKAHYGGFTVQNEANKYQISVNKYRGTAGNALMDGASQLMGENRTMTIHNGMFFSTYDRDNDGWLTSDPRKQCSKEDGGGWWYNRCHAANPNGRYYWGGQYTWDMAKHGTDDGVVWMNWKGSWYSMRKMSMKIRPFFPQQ
Chain of Human fibrinogen (human) (P02679 27-453, chain 3 of 3, further chain): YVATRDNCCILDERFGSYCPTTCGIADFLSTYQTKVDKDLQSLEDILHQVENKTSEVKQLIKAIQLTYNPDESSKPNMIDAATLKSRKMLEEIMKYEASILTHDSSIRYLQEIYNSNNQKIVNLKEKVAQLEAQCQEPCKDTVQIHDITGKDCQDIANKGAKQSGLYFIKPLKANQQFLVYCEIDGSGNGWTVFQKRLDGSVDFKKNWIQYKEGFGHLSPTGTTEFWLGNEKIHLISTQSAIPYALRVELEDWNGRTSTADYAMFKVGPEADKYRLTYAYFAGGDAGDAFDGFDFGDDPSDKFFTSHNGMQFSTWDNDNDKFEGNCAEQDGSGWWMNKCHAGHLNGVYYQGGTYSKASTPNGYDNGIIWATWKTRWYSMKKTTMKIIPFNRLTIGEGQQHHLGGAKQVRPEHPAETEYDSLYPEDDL

“GST-vWbp-N (N-terminal half of vWbp) (domain or fragment)” gave a Kd of 0.0032 µM.
Work on “GST-vWbp-C (C-terminal half of vWbp) (domain or fragment)” yielded a Kd of 0.038 µM.
